Three molecules from paper PMC5463365, “Assembly and use of high-density recombinant peptide chips for large-scale ligand screening is a practical alternative to synthetic peptide libraries” (BMC Genomics, 2017) can be followed below.

In assay [1] the target is T1, Recombinant Streptavidin, unconjugated (UniProt P22629 25-183).
T1 construct: Streptavidin, commercial recombinant protein; Used in the fluorescence polarisation assays; source: bought: recombinant, unconjugated format (Thermo Fisher Scientific, BioRad or Perkin Elmer, 'respectively')
T1 sequence (P22629 25-183): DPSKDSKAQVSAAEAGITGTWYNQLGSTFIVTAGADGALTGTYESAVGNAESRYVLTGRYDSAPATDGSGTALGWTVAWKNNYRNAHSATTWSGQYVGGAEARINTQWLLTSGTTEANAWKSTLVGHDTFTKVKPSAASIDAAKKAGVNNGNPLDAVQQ
The experiment in a line: fluorescence polarisation; 20 nM 5'FAM-labeled peptide with rising concentrations of Streptavidin/StrepTactin, triplicates; ES2 buffer (100 mM potassium phosphate pH 7.4, 100 μg/ml bovine γ globulin, 0.02% NaN3); at least 2 h at RT or o/n at 4 °C. The following applies: both partners purified.

In assay [2] the target is T2, Streptavidin on Streptavidin-coated biosensors (UniProt P22629 25-183).
T2 construct: Streptavidin coated on disposable biosensors; also called Streptavidin biosensors; source: bought: Streptavidin-coated biosensors for ForteBio's BLItz system
T2 sequence (P22629 25-183): as above
The experiment in a line: BLI; BLItz system; Streptavidin-coated biosensors exposed to chemically synthesized 5'FAM peptides for 2 min in ES2 buffer; only a single analyte concentration tested. The following applies: both partners purified. A general note: In BLI a coated tip is dipped into the sample, and binding shifts an interference pattern.

Where no end group is shown, it is not given here.

B1: 5'FAM-labeled Strep-tag I peptide (peptide)
peptide: {FAM}-AWRHPQFGG
notes: Strep-tag I; source: synthetic peptide (GenScript Inc.)
In the case of B1, the Kd (usually the concentration at which binding is half-saturated) in assay [1] is 2.75 µM. As for {FAM}-WSHPQFEK (Strep-tag II; source: synthetic peptide) [5'FAM-labeled Strep-tag II peptide], the Kd in assay [2] was found to be 25.4 µM; in assay [1], 13.3 µM.

In assay [2], {FAM}-VSHPQAPF (B5; source: synthetic peptide) [5'FAM-labeled B5 peptide] displayed a Kd of 79.5 µM.
